Source: the supplement of paper PMC7877785
± gives the uncertainty stated by the source.

Assay: self-splicing fitness, log relative to wild type (ln ratio); higher = more splicing; Tetrahymena group I intron in knt gene, E. coli kanamycin selection, DiMSum; sequences stand for … in CUCUCU…GGAGGGAAAAGUUAUCAGGCAUGCACCUGGUAGCUAGUCUUUAAACCAAUAGAUUGCAUCGGUUUAAAAGGCAAGACCGUCAAAUUGCGGGAAAGGGGUCAACAGCCGUUCAGUACCAAGUCUCAGGGGAAACUUUGAGAUGGCCUUGCAAAGGGUAUGGUAAUAAGCUGACGGACAUGGUCCUAACCACGCAGCCAAGUCCUAAGUCAACAGAUCUUCUGUUGAUAUGGAUGCAGUUCACAGACUAAAUGUCGGUCGGGGAAGAUGUAUUCUUCUCAUAAGAUAUAGUCGGACCUCUCCUUAAUGGGAGCUAGCGGAUGAAGUGAUGCAACACUGGAGCCGCUGGGAACUAAUUUGUAUGCGAAAGUAUAUUGAUUAGUUUUGGAGUACUCGUGGUCG
In short: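 A randomised library covering all eight P1ex-region intron nucleotides was built with the intron in the knt kanamycin-resistance gene on pET-22b(+) and held in E. coli BL21(DE3). Cells were grown overnight at 37°C or 30°C on LB agar, with or without 25 μg/mL kanamycin, plus 100 μg/mL carbenicillin, 50 μM IPTG and 0.2% rhamnose, and pooled colonies were amplicon-sequenced on an Illumina HiSeq 2500. DiMSum fitness is the error-weighted combination of wild-type-normalised replicate fold changes, kanamycin versus none.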

Sequence	self-splicing fitness (ln) (30 °C)	self-splicing fitness (ln) (37 °C)
UCUUAGCAAUAUUACGAAAU	-3.48 ± 0.33	-3.09 ± 0.35
GGAUAGCAAUAUUACGAGGU	-2.75 ± 0.29	-2.7 ± 0.18
AGAUAGCAAUAUUACGUGUU	-2.97 ± 0.13	-1.1 ± 0.11
AGAUAGCAAUAUUACGACAG	-2.26 ± 0.15	-0.465 ± 0.18
UGCCAGCAAUAUUACGAGUG	-1.32 ± 0.064	-0.537 ± 0.079
CCCUAGCAAUAUUACGCCAA	-3.03 ± 0.25	-2.74 ± 0.41
CCUAAGCAAUAUUACGUCGA	-2.67 ± 0.23	-2.77 ± 0.25
GGCUAGCAAUAUUACGUUCA	-0.464 ± 0.094	0.156 ± 0.11
AAAGAGCAAUAUUACGGUGU	-4.54 ± 0.28	-2.87 ± 0.21
UUUGAGCAAUAUUACGUCGG	-3.06 ± 0.21	-1.28 ± 0.18
GUUUAGCAAUAUUACGAAAG	-1.07 ± 0.18	-0.341 ± 0.22
UUCCAGCAAUAUUACGAUGC	-3.4 ± 0.23	-2.79 ± 0.23
CCCUAGCAAUAUUACGGGAG	-3.67 ± 0.18	-1.79 ± 0.14
ACGCAGCAAUAUUACGCACC	-0.334 ± 0.18	-0.22 ± 0.18
UCCGAGCAAUAUUACGCCAC	-2.05 ± 0.4	
CCUAAGCAAUAUUACGAGUG	-0.812 ± 0.045	-0.282 ± 0.073
AUUGAGCAAUAUUACGGAUU	-2.96 ± 0.23	-1.64 ± 0.23

Sequence	self-splicing fitness (ln) (30 °C)	self-splicing fitness (ln) (37 °C)
UAUGAGCAAUAUUACGGACA	-2.64 ± 0.35	-2.28 ± 0.29
UGCCAGCAAUAUUACGCAAU	-4.51 ± 0.2	-2.59 ± 0.13
GUUCAGCAAUAUUACGACGU	0.000808 ± 0.063	0.108 ± 0.08
UUUGAGCAAUAUUACGUUGG	-3.37 ± 0.28	-2.26 ± 0.26
AUAGAGCAAUAUUACGUCCU	-1.42 ± 0.093	-0.577 ± 0.14
CGAGAGCAAUAUUACGGGAU	-2.56 ± 0.13	-2.53 ± 0.23
AAUGAGCAAUAUUACGAGGG	-4.5 ± 0.29	-1.98 ± 0.17
AUUUAGCAAUAUUACGGAAU	-2.62 ± 0.28	-2.49 ± 0.26
GUACAGCAAUAUUACGAAAU	-2.34 ± 0.12	-0.906 ± 0.11
GGGAAGCAAUAUUACGUCCA	0.145 ± 0.14	0.69 ± 0.16
UUGCAGCAAUAUUACGGCCA	-0.118 ± 0.16	0.347 ± 0.19
UGCAAGCAAUAUUACGGGCG	-1.41 ± 0.087	-0.699 ± 0.1
CUAGAGCAAUAUUACGUCAU	-4.42 ± 0.28	-2.58 ± 0.18
CUUGAGCAAUAUUACGCCUU		-2.47 ± 0.37
GAUAAGCAAUAUUACGCGCU	-1.44 ± 0.14	-1.47 ± 0.15
AUGAAGCAAUAUUACGACGU	0.206 ± 0.076	0.735 ± 0.088
GUACAGCAAUAUUACGGACA	-2.13 ± 0.12	-1.13 ± 0.1
